Laboratory results published in PMC6053543 (Nature cell biology, 2016).

T1: recombinant FL-Kank2 (mouse, UniProt Q8BX02 1-843)
T1 sequence (looked up): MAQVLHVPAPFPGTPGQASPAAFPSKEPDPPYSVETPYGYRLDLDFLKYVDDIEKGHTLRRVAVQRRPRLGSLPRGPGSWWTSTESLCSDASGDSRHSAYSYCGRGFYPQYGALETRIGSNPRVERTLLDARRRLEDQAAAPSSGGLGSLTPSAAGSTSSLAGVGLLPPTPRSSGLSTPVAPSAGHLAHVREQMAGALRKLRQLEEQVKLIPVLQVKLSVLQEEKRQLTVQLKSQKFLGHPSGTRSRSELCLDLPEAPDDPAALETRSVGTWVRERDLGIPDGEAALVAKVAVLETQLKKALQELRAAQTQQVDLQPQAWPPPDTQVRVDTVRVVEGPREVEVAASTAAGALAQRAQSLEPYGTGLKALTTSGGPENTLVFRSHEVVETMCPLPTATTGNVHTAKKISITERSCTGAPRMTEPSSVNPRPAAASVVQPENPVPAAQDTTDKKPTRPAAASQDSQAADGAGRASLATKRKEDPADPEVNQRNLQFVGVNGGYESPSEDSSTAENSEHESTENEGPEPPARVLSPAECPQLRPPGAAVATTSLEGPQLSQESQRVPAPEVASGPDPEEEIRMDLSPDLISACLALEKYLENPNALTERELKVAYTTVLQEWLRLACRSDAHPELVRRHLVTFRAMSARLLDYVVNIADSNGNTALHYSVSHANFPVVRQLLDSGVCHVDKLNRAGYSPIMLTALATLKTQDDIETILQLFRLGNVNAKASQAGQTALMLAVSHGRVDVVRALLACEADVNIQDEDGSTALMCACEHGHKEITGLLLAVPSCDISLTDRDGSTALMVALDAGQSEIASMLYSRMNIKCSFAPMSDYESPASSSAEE

B1: Venus-His-Sumo-tagged talin R4–R8 domain (domain or fragment, mouse, UniProt P26039 913-1655, looked up)
chain: LVQRLEHAAKQAAASATQTIAAAQHAASAPKASAGPQPLLVQSCKAVAEQIPLLVQGVRGSQAQPDSPSAQLALIAASQSFLQPGGKMVAAAKASVPTIQDQASAMQLSQCAKNLGTALAELRTAAQKAQEACGPLEMDSALSVVQNLEKDLQEIKAAARDGKLKPLPGETMEKCTQDLGNSTKAVSSAIAKLLGEIAQGNENYAGIAARDVAGGLRSLAQAARGVAALTSDPAVQAIVLDTASDVLDKASSLIEEAKKASGHPGDPESQQRLAQVAKAVTQALNRCVSCLPGQRDVDNALRAVGDASKRLLSDSLPPSTGTFQEAQSRLNEAAAGLNQAATELVQASRGTPQDLARASGRFGQDFSTFLEAGVEMAGQAPSQEDRAQVVSNLKGISMSSSKLLLAAKALSTDPASPNLKSQLAAAARAVTDSINQLITMCTQQAPGQKECDNALRQLETVRELLENPVQPINDMSYFGCLDSVMENSKVLGEAMTGISQNAKNGNLPEFGDAIATASKALCGFTEAAAQAAYLVGVSDPNSQAGQQGLVEPTQFARANQAIQMACQSLGEPGCTQAQVLSAATIVAKHTSALCNSCRLASARTANPTAKRQFVQSAKEVANSTANLVKTIKALDGDFTEENRAQCRAATAPLLEAVDNLSAFASNPEFSSVPAQISPEGRAAMEPIVISAKTMLESAGGLIQTARALAVNPRDPPRWSVLAGHSRTVSDSIKKLITSMRDKA

Legend:
[1] = molecular target: B1; experiment: pull-down
[2] = molecular target: T1, recombinant FL-Kank2; experiment: pull-down

| Binder | binding result [1] | binding result [2] |
| --- | --- | --- |
| DPPYSVETPYGYRLDLDFLKYVDDIEKGHTLRRVAVQRRPRLGS (domain or fragment, mouse, UniProt Q8BX02 29-72, looked up) [GST-tagged Kank2-KN (amino acids 29–72)] | binds |  |
| B1 |  | binds |
